Data published in publication PMC5967339, “Rhodopsin-cyclases for photocontrol of cGMP/cAMP and 2.3 Å structure of the adenylyl cyclase domain” (Nature Communications, 2018).
Values belong to the molecule of their own block, whether it stands above or below them.

What was measured:
[1] = tested on: CaRhGC; assay: RP-HPLC of cGMP, initial rates, Hill fit; format: biochemical, Catenaria anguillulae; details: GTP/Mn2+, pH 7.5, 22 °C, 522 nm light 0.010 mW mm^-2, dark activity subtracted, detergent
Excerpt: RP-HPLC of cGMP, initial rates, Hill fit on CaRhGC

[2] = tested on: T1, Nc1ncnc2c1ncn2[C@@H]1O[C@H](COP(=O)(O)OP(=O)(O)OP(=O)(O)O)[C@@H](O)[C@H]1O; assay: RP-HPLC of cAMP, initial rates, Hill fit; format: biochemical, Catenaria anguillulae; details: ATP/Mn2+, pH 7.5, 22 °C
T1 construct: CaAC is a homodimer in the crystal
Excerpt: RP-HPLC of cAMP, initial rates, Hill fit on CaGC (mutant form: CaAC)

[3] = substrate: Nc1nc2c(ncn2[C@@H]2O[C@H](COP(=O)(O)OP(=O)(O)OP(=O)(O)O)[C@@H](O)[C@H]2O)c(=O)[nH]1; assay: RP-HPLC of cGMP, initial rates, Hill fit; format: biochemical, Blastocladiella emersonii; details: GTP/Mn2+, pH 7.5, 22 °C
Excerpt: RP-HPLC of cGMP, initial rates, Hill fit on BeGC

[4] = substrate: Nc1nc2c(ncn2[C@@H]2O[C@H](COP(=O)(O)OP(=O)(O)OP(=O)(O)O)[C@@H](O)[C@H]2O)c(=O)[nH]1; assay: RP-HPLC of cGMP, initial rates, Hill fit; format: biochemical, Blastocladiella emersonii; details: GTP/Mn2+, pH 7.5, 22 °C, 522 nm light 0.010 mW mm^-2, dark activity subtracted, detergent
Excerpt: RP-HPLC of cGMP, initial rates, Hill fit on BeRhGC

Km [1]: 6.1 ± 5.59 mM
Molecule: Nc1nc2c(ncn2[C@@H]2O[C@H](COP(=O)(O)OP(=O)(O)OP(=O)(O)O)[C@@H](O)[C@H]2O)c(=O)[nH]1 [GTP]

Molecule: CaGC (mutant form: CaAC) (Catenaria anguillulae PL171; C201D/E132K)
Km [2]: 6.09 ± 1.74 mM | kcat [2]: 1.012 s⁻¹ | kcat/Km [2]: 170 M⁻¹ s⁻¹

B1: BeGC (Blastocladiella emersonii) (protein)
chain: TEAKEYESVTVFFSDITNFTVISSRTSTKDMMATLNKLWLEYDAIAKRWGVYKVETIGDAYLGVTGAPDVVPDHAERACNFAVDIIEMIKSFKTITGESINIRIGLNSGPVTAGVLGDLNPHWCLVGDTVNTASRMESTSKAGHIHISESTYHFIKSKFVTQPLDVMEVKGKGKMQTYWVLGRK
Km [3]: 2.16 ± 0.30 mM | kcat [3]: 0.339 s⁻¹ | kcat/Km [3]: 160 M⁻¹ s⁻¹

B2: BeRhGC (Blastocladiella emersonii) (protein)
chain: MKDKDNNLRGACSSCNCPEYCFSPTSTLCDDCKCSVTKHPIVEQPLSRNGSFRSSGASLLPSPSSPNVKITSTVGLRSRKSESQANVRGSMISNSNSGSRSNNSGGAGGGSGGSSSSKGGSALANYQSAMSELWSWNMMLSTPSLKFLTVQFTTWIVLTTVGAIYTLFFHERQAYNRGWADIWYGYGAFGFGLGLSFAYMGFTGARNPEKKALSLCLLGVNFISFMSYIIIMLRLTPTIEGTMANPVEPARYLEWIATCPVLILLISEITQYPHDPYKVIVNDYALCLAGFVGAISAQQPWGDLAHFVSCLCFSYVVYSLWSCFTGAIDGETQCNVEKSGLRWIRFSTITTWSLFPITWFSYTSGLISFTVAEAGFSMIDIGAKVFLTLVLVNSTVEQAQNQKVDAITAIAEELENQINNCDAILQKMMPEGVLEQLKNGQATEAKEYESVTVFFSDITNFTVISSRTSTKDMMATLNKLWLEYDAIAKRWGVYKVETIGDAYLGVTGAPDVVPDHAERACNFAVDIIEMIKSFKTITGESINIRIGLNSGPVTAGVLGDLNPHWCLVGDTVNTASRMESTSKAGHIHISESTYHFIKSKFVTQPLDVMEVKGKGKMQTYWVLGRK
Km [4]: 0.92 ± 0.27 mM | kcat [4]: 1.07 s⁻¹ | kcat/Km [4]: 1200 M⁻¹ s⁻¹
